Laboratory results from publication PMC8674125, “Analysis of Il36a induction by C/EBPβ via a half-CRE•C/EBP element in murine macrophages in dependence of its CpG methylation level”.

B1: FP_CREB (unmethylated half-CRE•C/EBP Il36a) (dsDNA)
DNA 1: CATCTTACGTCACCT
DNA 2: AGGTGACGTAAGATG
B2: FP_CREBmeth (methylated half-CRE•C/EBP Il36a) (dsDNA)
DNA 1: CATCTTACGTCACCT
DNA 2: AGGTGACGTAAGATG
modifications: 5-methyl-C (mC) at position 8 of strand 1 and position 7 of strand 2

Biological target: C/EBPβ bZIP domain (mouse, UniProt P28033 221-296)
Test: fluorescence polarization; FP: 5 nM DNA, 20 mM Tris-HCl pH 7.5, 150 mM NaCl, 5% glycerol, 0.5 mM TCEP, 0.1 mg/ml BSA, 30 min, temperature not stated; EMSA conditions as in earlier work, not given
Settings: protein: recombinant; tags: N-terminal 6xHis (pET-45b); chain copies: 2; label: 5'-FAM on strand 1; blunt

Sequence of C/EBPβ bZIP domain (P28033 221-296): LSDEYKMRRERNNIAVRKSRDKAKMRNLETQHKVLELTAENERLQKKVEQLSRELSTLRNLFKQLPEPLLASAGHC

Binder	Kd [nM]
B1	80 ± 30
B2	100 ± 30
